pEC50: −log10 of the molar value.
Legend:
[1] = molecular target: human CD200R1 expressed on cells (Jurkat-CD200R1, U937-CD200R1, HH cells) (human) (UniProt Q8TD46); test: flow cytometry, HH cells; drawn table, row EC50
[2] = molecular target: human CD200R1 expressed on cells (Jurkat-CD200R1, U937-CD200R1, HH cells) (human) (UniProt Q8TD46); test: flow cytometry, HH cells; drawn table
[3] = molecular target: human CD200R1 expressed on cells (Jurkat-CD200R1, U937-CD200R1, HH cells) (human) (UniProt Q8TD46); test: cell-based or functional assay

Sequence of human CD200R1 expressed on cells (Jurkat-CD200R1, U937-CD200R1, HH cells) (human) (Q8TD46 25-348): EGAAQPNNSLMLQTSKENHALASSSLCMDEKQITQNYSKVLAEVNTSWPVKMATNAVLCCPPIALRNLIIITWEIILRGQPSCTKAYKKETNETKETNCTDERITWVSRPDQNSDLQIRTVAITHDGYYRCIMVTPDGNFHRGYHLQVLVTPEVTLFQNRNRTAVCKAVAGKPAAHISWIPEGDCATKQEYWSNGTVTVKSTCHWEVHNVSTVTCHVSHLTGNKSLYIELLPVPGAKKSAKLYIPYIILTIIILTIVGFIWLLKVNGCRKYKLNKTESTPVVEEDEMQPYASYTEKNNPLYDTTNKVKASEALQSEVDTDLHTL

IgG1 (antibody)
pEC50 [1]: 6.09 | Geo mean (%) at 0.05 nM [2]: 0.8% | Geo mean (%) at 0.19 nM [2]: 0.8% | Geo mean (%) at 0.78 nM [2]: 0.8% | Geo mean (%) at 3.125 nM [2]: 0.8% | Geo mean (%) at 12.5 nM [2]: 0.8% | Geo mean (%) at 50 nM [2]: 1% | Geo mean (%) at 200 nM [2]: 1.9% | Geo mean (%) at 800 nM [2]: 3.5%

LY3454738 (US 2020/0087395, I-4P, Eli Lilly) (antibody)
EC50 (nM), degree of signal transduction by the Dok2 protein [3]: > 10000 nM | IC50 (nM) of IL-6 inhibition, LPS-treated U937-CD200R1 cells [3]: 1.72 nM | IC50 (nM) of TNF-α inhibition, LPS-treated U937-CD200R1 cells [3]: 6.03 nM | IL-6 (pg/ml) at log [Ab] (M) -7, LPS-treated U937-CD200R1 cells [3]: 523 pg/ml | IL-6 (pg/ml) at log [Ab] (M) -8, LPS-treated U937-CD200R1 cells [3]: 1330 pg/ml | IL-6 (pg/ml) at log [Ab] (M) -9, LPS-treated U937-CD200R1 cells [3]: 2670 pg/ml | IL-6 (pg/ml) at log [Ab] (M) -10, LPS-treated U937-CD200R1 cells [3]: 3380 pg/ml | IL-6 (pg/ml) at log [Ab] (M) -11, LPS-treated U937-CD200R1 cells [3]: 3550 pg/ml | IL-6 (pg/ml) at log [Ab] (M) -12, LPS-treated U937-CD200R1 cells [3]: 4530 pg/ml | RLU (a.u.), phosphorylated Dok2 reporter, antibody dose 0.05 nM [3]: 9260 a.u. | RLU (a.u.), phosphorylated Dok2 reporter, antibody dose 0.10 nM [3]: 8400 a.u. | RLU (a.u.), phosphorylated Dok2 reporter, antibody dose 0.20 nM [3]: 8000 a.u. | RLU (a.u.), phosphorylated Dok2 reporter, antibody dose 0.39 nM [3]: 8960 a.u. | RLU (a.u.), phosphorylated Dok2 reporter, antibody dose 0.78 nM [3]: 8900 a.u. | RLU (a.u.), phosphorylated Dok2 reporter, antibody dose 1.56 nM [3]: 9100 a.u. | RLU (a.u.), phosphorylated Dok2 reporter, antibody dose 3.13 nM [3]: 9470 a.u. | RLU (a.u.), phosphorylated Dok2 reporter, antibody dose 6.25 nM [3]: 8930 a.u. | RLU (a.u.), phosphorylated Dok2 reporter, antibody dose 12.5 nM [3]: 13000 a.u. | RLU (a.u.), phosphorylated Dok2 reporter, antibody dose 25 nM [3]: 22700 a.u. | RLU (a.u.), phosphorylated Dok2 reporter, antibody dose 50 nM [3]: 25600 a.u. | TNF-α (pg/ml) at log [Ab] (M) -7, LPS-treated U937-CD200R1 cells [3]: 472 pg/ml | TNF-α (pg/ml) at log [Ab] (M) -8, LPS-treated U937-CD200R1 cells [3]: 1040 pg/ml | TNF-α (pg/ml) at log [Ab] (M) -9, LPS-treated U937-CD200R1 cells [3]: 1480 pg/ml | TNF-α (pg/ml) at log [Ab] (M) -10, LPS-treated U937-CD200R1 cells [3]: 3760 pg/ml | TNF-α (pg/ml) at log [Ab] (M) -11, LPS-treated U937-CD200R1 cells [3]: 4950 pg/ml | TNF-α (pg/ml) at log [Ab] (M) -12, LPS-treated U937-CD200R1 cells [3]: 5490 pg/ml

hIgG4 kappa isotype control (Crownvivo, #C0004) (antibody)
IL-6 (pg/ml) at log [Ab] (M) -7, LPS-treated U937-CD200R1 cells [3]: 3510 pg/ml | TNF-α (pg/ml) at log [Ab] (M) -7, LPS-treated U937-CD200R1 cells [3]: 5090 pg/ml

— patent US20260263521A1, “ANTI-CD200R1 ANTIBODY AND USE THEREOF” (AIMED BIO INC., priority 2023, published 2026)
